The assay concerns the target T1, human recombinant aromatase (human) (UniProt P11511).
T1 sequence: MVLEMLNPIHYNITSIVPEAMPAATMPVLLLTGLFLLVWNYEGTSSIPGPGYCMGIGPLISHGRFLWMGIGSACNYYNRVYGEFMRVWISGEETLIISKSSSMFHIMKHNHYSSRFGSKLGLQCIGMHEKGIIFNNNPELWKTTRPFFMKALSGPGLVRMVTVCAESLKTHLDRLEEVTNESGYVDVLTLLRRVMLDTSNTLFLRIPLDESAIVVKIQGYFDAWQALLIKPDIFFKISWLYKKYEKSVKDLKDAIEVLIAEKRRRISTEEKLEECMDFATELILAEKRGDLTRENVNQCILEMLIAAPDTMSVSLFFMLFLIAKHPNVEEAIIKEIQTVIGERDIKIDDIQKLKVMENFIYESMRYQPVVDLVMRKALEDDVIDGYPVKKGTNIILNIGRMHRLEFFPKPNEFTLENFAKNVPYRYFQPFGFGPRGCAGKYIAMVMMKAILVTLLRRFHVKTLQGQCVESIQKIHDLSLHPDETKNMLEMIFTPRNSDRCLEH

B1: NADPH-cytochrome P450 reductase (enzyme)
chain: MGDSHEDTSATMPEAVAEEVSLFSTTDMVLFSLIVGVLTYWFIFRKKKEEIPEFSKIQTTAPPVKESSFVEKMKKTGRNIIVFYGSQTGTAEEFANRLSKDAHRYGMRGMSADPEEYDLADLSSLPEIDKSLVVFCMATYGEGDPTDNAQDFYDWLQETDVDLTGVKFAVFGLGNKTYEHFNAMGKYVDQRLEQLGAQRIFELGLGDDDGNLEEDFITWREQFWPAVCEFFGVEATGEESSIRQYELVVHEDMDVAKVYTGEMGRLKSYENQKPPFDAKNPFLAAVTANRKLNQGTERHLMHLELDISDSKIRYESGDHVAVYPANDSALVNQIGEILGADLDVIMSLNNLDEESNKKHPFPCPTTYRTALTYYLDITNPPRTNVLYELAQYASEPSEQEHLHKMASSSGEGKELYLSWVVEARRHILAILQDYPSLRPPIDHLCELLPRLQARYYSIASSSKVHPNSVHICAVAVEYEAKSGRVNKGVATSWLRAKEPAGENGGRALVPMFVRKSQFRLPFKSTTPVIMVGPGTGIAPFMGFIQERAWLREQGKEVGETLLYYGCRRSDEDYLYREELARFHKDGALTQLNVAFSREQAHKVYVQHLLKRDREHLWKLIHEGGAHIYVCGDARNMAKDVQNTFYDIVAEFGPMEHTQAVDYVKKLMTKGRYSLDVWS
Consider B1, for which the Km of aromatase for reductase from Lineweaver–Burk plots; tritiated water release from [1β-3H(N)]-androstenedione, 50 nM pure aromatase, reductase 1 nM to 20 nM, androstenedione 10 nM to 500 nM, 37°C worked out at 1 nM.

These data come from paper PMC2778552.
